Results taken from patent US20130195901A1.

How the values were obtained:
[1] = target: HLA-A*0201 class I monomer of the iTopia Epitope Discovery System; assay: iTopia off-rate assay
[2] = target: HLA-A*0201 class I monomer of the iTopia Epitope Discovery System; assay: iTopia affinity assay (ED50)

Row | fold increase of halftime of dissociation vs native peptide [1] [fold] | fold reduction of ED50 vs native peptide [2] [fold] | fold reduction of affinity vs native peptide [2] [fold] | Substance
1 | 2 | > 4 |  | PRAME425-433 S425F L433Nle analog (peptide)
2 |  |  | 3 | PRAME425-433 analog, Nva at P2 (peptide)
